Results from patent publication US20230374147A1 (HUMMINGBIRD BIOSCIENCE PTE, published 2023).
Positions count from the first letter of the chain named. Read-outs that look alike come from different tables or passages of the source.

What was measured:
[1] = molecular target: T1, His-tagged cynomolgous macaque BCMA (Acro Biosystems, BCA-C52H7) (cynomolgus macaque, UniProt Q02223 1-54 (human entry)); assay: BLI, His-tagged cynomolgus BCMA on HIS1K tip; R2 0.9022
T1 construct: Bought protein; also called cyno BCMA; CyBCMA; not shown: His tag

[2] = molecular target: T2, human BCMA expressed on cells (human, UniProt Q02223 1-184); assay: flow cytometry, H929 cells (BCMA-expressing)
T2 construct: the cell line is named under assay; also called wildtype human BCMA
T2 sequence: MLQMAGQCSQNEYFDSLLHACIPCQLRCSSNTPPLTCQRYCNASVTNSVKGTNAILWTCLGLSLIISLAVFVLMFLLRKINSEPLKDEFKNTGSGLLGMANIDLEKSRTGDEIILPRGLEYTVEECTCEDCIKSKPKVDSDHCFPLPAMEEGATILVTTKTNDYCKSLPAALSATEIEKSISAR

[3] = molecular target: T3, His-tagged human BCMA (Acro Biosystems, Cat. #BCA-H522y) (human, UniProt Q02223 1-54); assay: BLI, His-tagged human BCMA on HIS1K tip, no APRIL; R2 0.9919
T3 construct: also called huBCMA; P1; not shown: His tag
T3 sequence: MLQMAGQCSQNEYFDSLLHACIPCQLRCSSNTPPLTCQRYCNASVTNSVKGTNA

[4] = molecular target: T2, human BCMA expressed on cells; assay: flow cytometry, HEK 293 cells expressing human BCMA
[5] = molecular target: T4, recombinant his-tagged human TACI (Sinobiological cat #11937-H08H) (human, UniProt O14836 1-165); assay: ELISA, coated His-tagged human TACI
T4 construct: Bought protein; also called Human TACI-His; huTACI; not shown: His tag
T4 sequence: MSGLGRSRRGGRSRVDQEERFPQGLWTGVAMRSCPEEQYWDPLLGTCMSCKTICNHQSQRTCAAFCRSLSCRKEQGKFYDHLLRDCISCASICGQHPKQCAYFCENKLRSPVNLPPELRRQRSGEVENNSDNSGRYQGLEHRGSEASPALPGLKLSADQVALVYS

[6] = molecular target: T3, His-tagged human BCMA (Acro Biosystems, …); assay: ELISA, coated His-tagged human BCMA
[7] = molecular target: T3, His-tagged human BCMA (Acro Biosystems, …); assay: competition ELISA: His-tagged human BCMA binding to coated APRIL-Fc in the presence of the antibody
[8] = molecular target: T3, His-tagged human BCMA (Acro Biosystems, …); assay: BLI, His-tagged human BCMA on HIS1K tip; R2 0.9919
[9] = molecular target: T2, human BCMA expressed on cells; assay: flow cytometry, HEK293 cells stably expressing human BCMA
[10] = molecular target: T1, His-tagged cynomolgous macaque BCMA …; assay: BLI, His-tagged cynomolgus BCMA on HIS1K tip
[11] = molecular target: T3, His-tagged human BCMA (Acro Biosystems, …); assay: ELISA, coated His-tagged human BCMA; remark: listed apart in the source
[12] = molecular target: T5, cynomolgous macaque BCMA expressed on CHOK1 cells; assay: flow cytometry, CHOK1 cells transiently expressing cynomolgus BCMA
T5 construct: also called cyno BCMA on cells

[13] = molecular target: T2, human BCMA expressed on cells; assay: flow cytometry, H929 cells (BCMA-expressing); remark: listed apart in the source
[14] = molecular target: T6, His-tagged mouse BCMA (Acro Biosystems, BCA-M52H3) (mouse, UniProt O88472 1-49); assay: BLI, His-tagged mouse BCMA on HIS1K tip
T6 construct: Bought protein; not shown: His tag
T6 chain: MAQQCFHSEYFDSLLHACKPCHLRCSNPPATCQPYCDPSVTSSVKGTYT

[15] = molecular target: T4, recombinant his-tagged human TACI …; assay: ELISA, coated His-tagged human TACI; remark: listed apart in the source
[16] = molecular target: T6, His-tagged mouse BCMA (Acro Biosystems, …); assay: BLI, His-tagged mouse BCMA on HIS1K tip; R2 0.9686
[17] = molecular target: T3, His-tagged human BCMA (Acro Biosystems, …); assay: BLI, His-tagged human BCMA on HIS1K tip
[18] = molecular target: T7, human TACI expressed on cells (human, UniProt O14836 1-293); assay: flow cytometry, HEK 293 cells expressing human TACI
T7 construct: also called wildtype human TACI
T7 sequence: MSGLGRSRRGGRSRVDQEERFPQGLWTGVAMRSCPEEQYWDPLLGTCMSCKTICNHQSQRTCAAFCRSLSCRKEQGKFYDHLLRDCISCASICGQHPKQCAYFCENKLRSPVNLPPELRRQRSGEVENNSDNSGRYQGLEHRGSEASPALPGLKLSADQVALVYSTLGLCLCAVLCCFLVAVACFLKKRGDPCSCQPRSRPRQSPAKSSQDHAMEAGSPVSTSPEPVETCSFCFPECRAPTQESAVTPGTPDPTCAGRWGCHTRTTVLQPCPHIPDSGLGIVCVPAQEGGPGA

[19] = molecular target: T8, BCMA Mut (human, UniProt Q02223 1-184); assay: flow cytometry on HEK293T cells expressing BCMA Mut
T8 construct: Expressed on HEK293T cells; also called human BCMA comprising the substitutions Y13A, D15A, L17G and L18G
T8 chain: T2 sequence with Y13A, D15A, L17G, L18G

[20] = molecular target: T3, His-tagged human BCMA (Acro Biosystems, …); assay: BLI, His-tagged human BCMA on HIS1K tip, no APRIL; R2 0.9901
[21] = molecular target: T5, cynomolgous macaque BCMA expressed on …; assay: flow cytometry, CHOK1 cells transiently expressing cynomolgus BCMA; remark: listed apart in the source
[22] = molecular target: T3, His-tagged human BCMA (Acro Biosystems, …); assay: BLI, His-tagged human BCMA on HIS1K tip; R2 0.9973
[23] = molecular target: T4, recombinant his-tagged human TACI …; assay: ELISA, coated His-tagged human TACI; remark: listed apart in the source
[24] = molecular target: T2, human BCMA expressed on cells; assay: flow cytometry, HEK293 cells stably expressing human BCMA; remark: listed apart in the source
[25] = molecular target: T1, His-tagged cynomolgous macaque BCMA …; assay: ELISA, coated His-tagged cynomolgus BCMA
[26] = molecular target: T1, His-tagged cynomolgous macaque BCMA …; assay: BLI, His-tagged cynomolgus BCMA on HIS1K tip; R2 0.9625
[27] = molecular target: T1, His-tagged cynomolgous macaque BCMA …; assay: BLI, His-tagged cynomolgus BCMA on HIS1K tip; R2 0.9501
[28] = molecular target: T3, His-tagged human BCMA (Acro Biosystems, …); assay: BLI, His-tagged human BCMA on HIS1K tip; R2 0.9901
[29] = molecular target: T6, His-tagged mouse BCMA (Acro Biosystems, …); assay: BLI, His-tagged mouse BCMA on HIS1K tip; R2 0.9322

B1: 538-SP5-B10 hIgG1 (antibody, V domains shown)
VH: EVQLQQSGPELVKPGASVKMSCKASGYTFTSYVMHWVKQKPGRGLEWIAYILPFNDVTKYNEKFKGKATLTSDKSSNTAYMELSSLTSEDSAVYYCARWEWDDGYFDYWGQGTTLTVSS
VL: DAVMTQTPLSLPVSLGDQASISCRSSQSLENSNGNTYLNWYLQKPGQSPQLLIYRVSNRFSGVLDRFSGSGSGTDFTLKISRVEAEDLGVYFCLQVSHVPFTFGAGTKLELKR
notes: Human-mouse chimeric antibody, human IgG1 format
Kd [1]: 31.4 nM | EC50 (read off the curve) [2]: ~0.03 mg/L | Kd [3]: < 0.001 nM | EC50 [4]: 0.21 nM | EC50 (read off the curve) [5]: ~0.4 mg/L | EC50 [6]: 0.085 nM | IC50 [7]: 0.39 nM | Kd [8]: < 0.001 nM | EC50 (read off the curve) [9]: ~0.03 mg/L | Cyno BCMA response [10]: 0.895 | EC50 (read off the curve) [11]: ~0.01 mg/L | binding result [12]: binds | EC50 (read off the curve) [13]: ~1 nM | Mouse BCMA response [14]: 1.31 | EC50 [15]: 2.53 nM | Kd [16]: 47.5 nM | Human BCMA response [17]: 2.35 | EC50 [18]: 24.1 nM | binding result [19]: no binding

B2: 552-LN2-F8 hIgG1 (antibody, V domains shown)
VH: QIQLVQSGPELKKPGETVKISCKASGYTFTDYTMYWVKQAPGKGLKWMGWINTETGEPTYADDFKGRFVFSLETSANTAYLQINNLKNEDTATYFCAISYYYGMDYWGQGTSVTVTS
VL: DIILTQSPASLAVSLGQRATITCRASKSVSTSGYNFVYWYQQKPGQPPKLLIYLASNLESGVPARFSGSGSGTDFTLNIHPVEEEDAATYYCQHSRELPRTFGGGTKLEIKR
notes: Human-mouse chimeric antibody, human IgG1 format; also called [9]
Kd [20]: < 0.001 nM | EC50 (read off the curve) [2]: ~0.1 mg/L | binding result [21]: binds | Kd [22]: < 0.001 nM | binding result [23]: no binding (tested: 10 ug/ml) | EC50 (read off the curve) [24]: ~0.5 mg/L | Cyno BCMA response [10]: 1.58 | EC50 (read off the curve) [25]: ~0.08 mg/L | Human BCMA response [17]: 2.31 | Kd [26]: 59.8 nM

B3: 539-SP5-D7 hIgG1 (antibody, V domains shown)
VH: EVMLVDSGGNLVKPGGSLKLSCAASGFTFSNYVISWVRQTPEKRLEWVATISTVGTNTYYPDSVRGRFTISRDNAENTLYLQMSSLRSEDTAIYYCSRHKYGYDDPSYAMDYWGQGTSVTVSS
VL: QLVLTQSSSASFSLGASAKLTCTLSSQHSTYTIEWYQQQPLKPPKYVMELKKDGSHSTGDGIPDRFSGSSSGADRYLSISNIQAEDEAIYICGVGDTVKEQFVYVFGGGTKVTVLG
notes: Human-mouse chimeric antibody, human IgG1 format, lambda light chain; also called [4]
Kd [20]: < 0.001 nM | EC50 (read off the curve) [2]: ~0.3 mg/L | binding result [21]: binds | Kd [27]: 167 nM | Kd [28]: < 0.001 nM | Cyno BCMA response [10]: 0.265 | Kd [29]: 4.86 nM | Mouse BCMA response [14]: 1.01 | Human BCMA response [17]: 2.14
